Reference: patent US20030040012A1, “Method of detecting protein-protein interaction” (priority 2000, published 2003)

T1: binding of Npw38 to NpwBP(P2)-GFP (Homo sapiens, UniProt O60828)
T1 construct: expressed in transfected cells; host or cells: COS7 (monkey kidney)
T1 sequence (O60828 1-265): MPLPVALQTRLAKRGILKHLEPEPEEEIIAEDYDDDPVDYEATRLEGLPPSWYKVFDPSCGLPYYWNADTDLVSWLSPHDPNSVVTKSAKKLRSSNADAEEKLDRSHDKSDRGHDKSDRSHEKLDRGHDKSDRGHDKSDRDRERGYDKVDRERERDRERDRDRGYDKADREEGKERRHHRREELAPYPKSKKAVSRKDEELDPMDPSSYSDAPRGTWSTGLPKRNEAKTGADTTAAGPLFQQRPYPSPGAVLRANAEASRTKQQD

T2: Npw38 (Homo sapiens, UniProt O60828, W52A)
T2 construct: expressed in transfected cells; host or cells: COS7 (monkey kidney)
T2 sequence (O60828 2-265 W52A): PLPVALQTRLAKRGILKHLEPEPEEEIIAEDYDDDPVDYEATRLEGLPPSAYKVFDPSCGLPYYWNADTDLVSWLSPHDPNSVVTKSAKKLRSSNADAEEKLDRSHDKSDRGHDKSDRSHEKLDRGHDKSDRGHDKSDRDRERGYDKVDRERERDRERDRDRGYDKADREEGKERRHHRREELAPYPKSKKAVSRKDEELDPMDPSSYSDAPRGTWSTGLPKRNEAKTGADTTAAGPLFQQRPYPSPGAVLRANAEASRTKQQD


Assays:
[1] = target: T1, binding of Npw38 to NpwBP(P2)-GFP; test: Detection of binding-inhibitory action on intranuclear localization of NpwBP(P2)-GFP; assay type: cell-based; settings: COS7 cells, NpwBP of more than NpwBP(P2)-GFP co-expressed along with Npw38 and NpwBP(P2)-GFP
Protocol: (§1) Monkey kidney-derived, cultured cell COS7 was incubated in a 10% fetal calf serum-containing Dulbecco's modified Eagle's medium (DMEM) in the presence of 5% CO2 at 37° C. COS7 cells of 1=10^5 were placed in a 6-well plate (from Nunk, having a well diameter of 3 cm), and further incubated therein in the presence of 5% CO2 at 37° C. for 22 hours. After the medium was removed, the cell sur were washed with a phosphate buffer solution (PBS), and then further washed with a 50 mM Tris-HCl (pH 7.5)-containing DMEM. To these cells, added was a suspension comprising 1 μl of a plasmid suspension, 0.6 ml of DMEM and 3 μl of TRANSFECTAM™ (from IBF), and incubated in the presence of 5% CO2 at 37° C. for 12 hours. Then, the cells were washed with PBS, and fixed with 4% peraformaldehyde-containing PBS at room temperature for 10 minutes. The thus-fixed cells were washed with PBS, then treated with 0.2% Triton X-100, and thereafter blocked with 5% milk PBS. This was reacted with an anti-HA antibody for 45 minutes, then washed with PBS, and reacted with a rhodamine-binding secondary antibody for 45 minutes.
In the system of the above (2), NpwBP of more than NpwBP(P2)-GFP was co-expressed in the cells along with Npw38 and NpwBP(P2)-GFP. In this case, the intranuclear localization of NpwBP(P2)-GFP was inhibited. […]

Npw38 = target: T2, Npw38; test: Npw38-NpwBP binding detection by intracellular localization of GFP fluorescence in COS7 cells; assay type: cell-based; settings: expressed in place of HA-Npw38 together with NpwBP-GFP
Protocol: as §1, with “45 minutes. […]” for “45 minutes.”
First, pKA1-NpwBP(P1)-GFP or pKA1-NpwBP(P2)-GFP was singly introduced into COS7 cells, and the localization of these fusion proteins in the cells was checked through fluorescence microscopy based on the green fluorescence of GFP as the index thereof. […]

| Molecule | intranuclear localization of NpwBP(P2)-GFP [1] | intranuclear localization of the green fluorescence of NpwBP-GFP (Npw38) |
| --- | --- | --- |
| NpwBP: nuclear protein (SEQ ID NO: 2) that binds to Npw38 (protein, listed as Homo sapiens) MGRRSTSSTKSGKFMNPTDQARKEARKRELKKNKKQRMMVRAAVLKMKDPKQIIRDMEKLDEMEFNPVQQPQLNEKVLKDKRKKLRETFERILRLYEKENPDIYKELRKLEVEYEQKRAQLSQYFDAVKNAQHVEVESIPLPDMPHAPSNILIQDIPLPGAQPPSILKKTSAYGPPTRAVSILPLLGHGVPRLPPGRKPPGPPPGPPPPQVVQMYGRKVGFALDLPPRRRDEDMLYSPELAQRGHDDDVSSTSEDDGYPEDMDQDKHDDSTDDSDTDKSDGESDGDEFVHRDNGERDNNEEKKSGLSVRFADMPGKSRKKKKNMKELTPLQAMMLRMAGQEIPEEGREVEEFSEDDDEDDSDDSEAEKQSQKQHKEESHSDGTSTASSQQQAPPQSVPPSQIQAPPMPGPPPLGPPPAPPLRPPGPPTGLPPGPPPGAPPFLRPPGMPGLRGPLPRLLPPGPPPGRPPGPPPGPPPGLPPGPPPRGPPPRLPPPAPPGIPPPRPGMMRPPLVPPLGPAPPGLFPPAPLPNPGVLSAPPNLIQRPKADDTSAATIEKKATATISAKPQITNPKAEITRFVPTALRVRRENKGATAAPQRKSEDDSAVPLAKAAPKSGPSVPVSVQTKDDVYEAFMKEMEGLL | inhibited | – |
| Npw38(W52A): a WW domain variant of Npw38 (protein) MPLPVALQTRLAKRGILKHLEPEPEEEIIAEDYDDDPVDYEATRLEGLPPSAYKVFDPSCGLPYYWNADTDLVSWLSPHDPNSVVTKSAKKLRSSNADAEEKLDRSHDKSDRGHDKSDRSHEKLDRGHDKSDRGHDKSDRDRERGYDKVDRERERDRERDRDRGYDKADREEGKERRHHRREELAPYPKSKKAVSRKDEELDPMDPSSYSDAPRGTWSTGLPKRNEAKTGADTTAAGPLFQQRPYPSPGAVLRANAEASRTKQQD | – | no intranuclear localization |
